Reference: patent publication US7648964B2, “Use of lacritin in promoting ocular cell survival” (University of Virginia Patent Foundation, priority 2004, dated 2010)

How the values were obtained:
PKCα [1] = assay: PKCα translocation in HSG cells (immunofluorescence, fractionation); format: cell-based, human; settings: 15 min after treatment
Text: In order to dissect the molecular pathways leading to the cell survival by lacritin, protein kinases and transcriptional factors were studied by Western blotting and immunofluorescence microscopy.
Images were acquired at 2-3 s intervals using LaserSharp2000 software (Bio-Rad) and store on disc for later analysis.

NFATC1 = NFATC1 translocation in HSG cells (immunofluorescence); format: cell-based, human; settings: HSG and corneal epithelial cells
Text: In order to dissect the molecular pathways leading to the cell survival by lacritin, protein kinases and transcriptional factors were studied by Western blotting and immunofluorescence microscopy. […] On the other hand, there were increased activities of transcriptional factors such as nuclear factor of activated T-cells (NFAT) and NF-kappaB. In FIG. 4, translocation of PKC alpha and NFAT was detected by immunofluorescence coupled with confocal microscopic imaging. In resting HSG cells (left three images), PKC alpha distributes mainly in cytosol and membrane. Similarly, NFATc1 was also found to localize largely in cytosol. Cellular co-location of PKC alpha and NFATc1 is apparent upon merging the two immunofluorescent images, as the merged cy3 and FITC labels produce distinctive yellow color.
Images were acquired at 2-3 s intervals using LaserSharp2000 software (Bio-Rad) and store on disc for later analysis. For translocation assays, HSG cells […] phorbol 12-myristate 13-acetate, […], then washed with phosphate-buffered saline, formaldehyde-fixed, blocked with phosphate-buffered saline containing 1% bovine serum albumin and 10% goat serum, incubated with anti-PKCα (C-20) or anti-NFATC1 (mab 7A6) (both from Santa Cruz Biotechnology Inc.; Santa Cruz, Calif.) followed by secondary Cy3-, FITC- or Alexa488-labeled antibodies and confocal microscopic visualization (Bio-Rad Radiance2100).

[2] = system: human salivary ductal (HSG) cells; assay: 3H-thymidine uptake mitogenesis assay; format: cell-based; settings: 10 nM; compared to intact lacritin
Procedure: (§1) For phosphotyrosine blotting and mitogenesis assays, cells in serum-containing media were seeded overnight in 24-well plates at a density of 0.5×10^5 cells/mm^2 corresponding to 20-30% confluency after cell attachment, incubated in serum-free media without supplements for 24 h (phosphotyrosine) or washed with serum-free media without supplements three times (mitogenesis) and incubated with lacritin (1-1000 nM), or positive controls EGF (1.6 nM) and 10% fetal bovine serum, or negative controls bovine serum albumin or no additive in serum-free media without supplements for the indicated times (phosphotyrosine) or 30 h (mitogenesis). For phosphotyrosine assays, cells were extracted in 1% NP40 containing sodium vanadate (2 mg/ml), DTT (5 mg/ml), protease inhibitors, 50 mM HEPES, 100 mM NaCl, and 2 mM EDTA; then separated by 10% SDS PAGE, transferred and blotted. The following antibodies (Cell Signaling Technology, Beverly Mass.) were tested: antiphosphotyrosine antibody (P-Tyr-100), anti-phospho-PKC αβII, anti-PKCα, anti-phospho-PKCδ, anti-phospho-PKC (pan), anti-p44/42 MAPK, anti-phospho-Raf, anti-phospho-SAPK/JNK, anti-phospho-p38 Map kinase, anti-phospho-Raf, anti-phospho-Akt, anti-phospho-CaMKII, anti-phospho-MARCKS, or anti-tubulin (loading control). After washing, bound antibodies were detected with peroxidase-labeled secondary antibody and ECL. With the exception of at least nine proteins in the P-Tyr-100 blot (FIG. 1), none of the effectors tested above appeared to be phospho-activated during lacritin signaling (not shown). For mitogenesis (Hussaini et al., '00), [^3H]-thymidine (2 mCi/ml) was added for the next 6 h. Incorporation was stopped with ice-cold phosphate buffered saline and followed by addition of cold and then room temperature trichloracetic acid (10%) for 10 min each, washing of cells with phosphate buffered saline, solubilization with 1 N sodium hydroxide, neutralization with 1 N hydrochloric acid, addition of scintillation fluid and then quantitation in a scintillation counter. To deplete PKCα in HSG cells, a pool of four PKCα-specific siRNAs (100 nM) were transfected via LipofectAMINE 2000 in Opti-MEMI Reduced Serum Medium (Invitrogen, Grand Island N.Y.) without serum and antibiotics according to manufacturer's instructions. Each of the four siRNAs was also individually transfected. In negative controls, cells were transfected with a pool of four lamin-specific siRNAs (Upstate LLC, Charlottesville Va.; Dharmacon Inc, Lafayette Colo.). Seventy-two hours post-transfection, mitogenesis was assessed by co-addition of 10 […] lacritin and [^3H]-thymidine (2 mCi/ml) (Amersham, Piscataway N.J.) for 24 hrs. PKCα depletion was confirmed by Western blotting.

PKCα [3] = assay: Phospho-PKCα blot of HSG cell lysates; format: cell-based, human
Procedure: as §1
We imaged PKCα in cells 15 min after treatment (FIG. 8). Nonmitogenic construct/fragment C-25 (10 nM) had no effect, leaving PKCa diffusely distributed throughout the cytoplasm. […] The phosphorylation state of PKCα influences its translocation site. Hyperphosphorylated PKCα becomes associated with the plasma membrane whereas hypophosphorylated or dephosphorylated PKCα is known to translocate to the perinuclear Golgi region. To determine if the latter is true and if so over what time course, we treated cells with lacritin, N-24 and C-25, and then blotted cell lysates for phospho-PKC ? (FIG. 8B). 10 nM lacritin promotes PKC ? dephosphorylation within 1 min of addition. This form is sustained for at least 15 min, but by 30 min has returned to baseline phosphorylation. Dephosphorylation triggered by increasing molar levels of lacritin or N-24 mirrored the proliferation response with optimal dephosphorylation at 10 nM. Non-mitogenic C-25 had no effect, whereas positive control 4β-phorbol 12-myristate 13-acetate-promoted hyperphosphorylation.

[4] = system: human corneal epithelial (HCE) cell line; assay: TNF-α-induced cell death in HCE cells (MTT cell viability); format: cell-based; settings: 18 or 30 hours; FIG. 10
Procedure: (§2) Lacritin-induced proliferation and calcium signaling was studied in the human corneal epithelial (HCE) cell line. HCE cells were grown at 37° C. in DMEM F/12 supplemented with 10% FBS and 50 μg/ml gentamicin. Each experiment was done in a dose- and time-dependent manner using TNF-α (5-20 ng/ml) and lacritin (1-10 nM). Cell viability was measured spectrophotometrically at an absorbance of 570 nm using the MTT assay. Caspase-8 activity was detected fluorometrically by measuring cleavage of the fluorogenic substrate IETD-pNA at an excitation wavelength of 405 nm. Lacritin-induced cell proliferation was studied by H3-thymidine incorporation and via fluorescence-based detection of PKC, PLC and cAMP. Calcium signaling was detected by confocal microscopy of Fluo-4 loaded cells.

caspase-3 = assay: Caspase-3 activity in human corneal epithelial cells treated with TNF; format: cell-based; settings: FIG. 11
Procedure: FIG. 11 graphically illustrates the ability of lacritin and fragments of lacritin to inhibit the ability of tumor necrosis factor (TNF) to regulate caspase-3 activity in human corneal epithelial cells. Go6976 is an inhibitor of protein kinase C. The ordinate represents relative fluorescence units. White bars indicate 3 hours and diagonally-hatched bars indicate 6 hours.
as §2

caspase-8 = assay: Caspase-8 activity in human corneal epithelial cells treated with TNF-α; format: cell-based
Procedure: FIG. 12 graphically illustrates the ability of lacritin polypeptides to block TNFα induced caspase-8 activity in human corneal epithelial cells. The ordinate represents relative fluorescence units. White bars indicate 1 hour and diagonally-hatched bars indicate 6 hours.
as §2

caspase-9 = assay: Caspase-9 activity in human corneal epithelial cells treated with TNF-α; format: cell-based; settings: lacritin polypeptides 10 nM
Procedure: FIG. 13 graphically illustrates the ability of lacritin polypeptides (10 nM) to block TNFα induced caspase-9 activity in human corneal epithelial cells. The ordinate represents relative fluorescence units. White bars indicate 6 hours and diagonally-hatched bars indicate 9 hours.
Caspase-9 activity was measured in cells treated with various combinations of TNF-α, fragments of lacritin, and the PKC inhibitor Go6976. […] The PKC-α inhibitor Go6976 and C-25 fail to block this increase of the downstream initiator caspase-9.

MUC16 = MUC16 blot of human corneal epithelial cells; format: cell-based; settings: 10 nM
Text: MUC16 is an important mucin on the ocular surface. Mucin contributes to the tear film, is important for wetting the ocular surface, and is reduced in Sjogren's syndrome patients. […] Cells were blotted for MUC16.

Molecule | PKCα translocation (PKCα [1]) | NFATC1 translocation (NFATC1) | mitogenic activity of deletion constructs [2] | effect on PKCα phosphorylation (PKCα [3]) | protection from TNF-induced cell death (viability) [4] | protection from cell death by TNF (caspase-3 activity) (caspase-3) | effect on TNF-α-induced caspase-8 activity (caspase-8) | effect on TNF-α-induced caspase-9 activity (caspase-9) | MUC16 secretion (MUC16)
C-25: deletion of the 25 carboxy terminal amino acids of mature lacritin (SEQ ID NO:10) (protein, homo sapiens) EDASSDSTGADPAQEAGTSKPNEEISGPAEPASPPETTTTAQETSAAAVQGTAKVTSSRQELNPLKSIVEKSILLTEQALAKAGKGMHGGVPGG | had no effect | had no effect | inactive | had no effect | no effect on viability loss | do not protect | fail to block | fail to block | inactive
C-5: deletion of the 5 carboxy terminal amino acids of mature lacritin (SEQ ID NO:10) (protein, listed as Homo sapiens) EDASSDSTGADPAQEAGTSKPNEEISGPAEPASPPETTTTAQETSAAAVQGTAKVTSSRQELNPLKSIVEKSILLTEQALAKAGKGMHGGVPGGKQFIENGSEFAQKLLKKFSL |  |  | active |  | protect |  | blocked | blocked | 
